System: GST-p180-Lys (p180 lysine-rich region)
Assay: EMSA
Details: PBS with 10 ug/ml denatured yeast tRNA, room temperature, 20 min; native 10% PAGE (19:1) in TBE; pH not stated

human insulin SSCR RNA
Kd: 800 nM

Source: PMC3362647
